Earlier results as cited in article PMC3024536.

Target: CD8αα (Mus musculus) (UniProt P01731)
Chain of UniProt P01731 (P01731 28-196): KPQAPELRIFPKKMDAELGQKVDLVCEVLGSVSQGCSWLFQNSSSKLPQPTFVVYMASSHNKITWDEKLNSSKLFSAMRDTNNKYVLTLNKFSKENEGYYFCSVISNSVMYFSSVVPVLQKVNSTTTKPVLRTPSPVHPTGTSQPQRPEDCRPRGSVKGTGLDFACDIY

Question: For “thymus leukaemia antigen (TL) (from UniProt P14432)”, which Kd is on record?
Answer: The Kd was 12 µM.
